In paper PMC8786347 (Oncoimmunology, 2022) one finds EC50 data, which are given here for one molecule.

By EC50 is commonly meant the concentration that produces a half-maximal response. Higher therefore signals a need for much substance.

One assay deals with T1, mCD27-Fc (mouse, UniProt P41272 24-182).
T1 sequence (looked up): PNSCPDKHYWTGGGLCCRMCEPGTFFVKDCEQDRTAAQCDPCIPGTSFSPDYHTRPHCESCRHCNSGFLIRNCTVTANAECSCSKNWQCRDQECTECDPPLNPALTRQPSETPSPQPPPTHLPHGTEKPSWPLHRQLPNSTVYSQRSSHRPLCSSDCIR
Kind of assay: ELISA.

Another assay has as its target T2, mCD40-Fc (mouse, UniProt P27512 20-193).
T2 sequence (looked up): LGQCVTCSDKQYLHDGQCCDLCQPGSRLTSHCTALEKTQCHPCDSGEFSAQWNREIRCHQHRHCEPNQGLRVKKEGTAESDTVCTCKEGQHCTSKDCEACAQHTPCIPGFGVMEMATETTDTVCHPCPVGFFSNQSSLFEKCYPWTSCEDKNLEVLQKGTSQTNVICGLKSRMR
Kind of assay: ELISA. (An ELISA detects its analyte on a solid surface through an enzyme-linked reagent.)

B1: mscCD40L-mscCD27L-mFc (Fc fusion)
chain 1: HRRLDKVEEEVNLHEDFVFIKKLKRCNKGEGSLSLLNCEEMRRQFEDLVKDITLNKEEKKENSFEMQRGDEDPQIAAHVVSEANSNAASVLQWAKKGYYTMKSNLVMLENGKQLTVKREGLYYVYTQVTFCSNREPSSQRPFIVGLWLKPSSGSERILLKAANTHSSSQLCEQQSVHLGGVFELQAGASVFVNVTEASQVIHRVGFSSFGLLKLGGHRRLDKVEEEVNLHEDFVFIKKLKRCNKGEGSLSLLNCEEMRRQFEDLVKDITLNKEEKKENSFEMQRGDEDPQIAAHVVSEANSNAASVLQWAKKGYYTMKSNLVMLENGKQLTVKREGLYYVYTQVTFCSNREPSSQRPFIVGLWLKPSSGSERILLKAANTHSSSQLCEQQSVHLGGVFELQAGASVFVNVTEASQVIHRVGFSSFGLLKLGGHRRLDKVEEEVNLHEDFVFIKKLKRCNKGEGSLSLLNCEEMRRQFEDLVKDITLNKEEKKENSFEMQRGDEDPQIAAHVVSEANSNAASVLQWAKKGYYTMKSNLVMLENGKQLTVKREGLYYVYTQVTFCSNREPSSQRPFIVGLWLKPSSGSERILLKAANTHSSSQLCEQQSVHLGGVFELQAGASVFVNVTEASQVIHRVGFSSFGLLKL
chain 2: SKQQQRLLEHPEPHTAELQLNLTVPRKDPTLRWGAGPALGRSFTHGPELEEGHLRIHQDGLYRLHIQVTLANCSSPGSTLQHRATLAVGICSPAAHGISLLRGRFGQDCTVALQRLTYLVHGDVLCTNLTLPLLPSRNADETFFGVQWICPGGSKQQQRLLEHPEPHTAELQLNLTVPRKDPTLRWGAGPALGRSFTHGPELEEGHLRIHQDGLYRLHIQVTLANCSSPGSTLQHRATLAVGICSPAAHGISLLRGRFGQDCTVALQRLTYLVHGDVLCTNLTLPLLPSRNADETFFGVQWICPGGSKQQQRLLEHPEPHTAELQLNLTVPRKDPTLRWGAGPALGRSFTHGPELEEGHLRIHQDGLYRLHIQVTLANCSSPGSTLQHRATLAVGICSPAAHGISLLRGRFGQDCTVALQRLTYLVHGDVLCTNLTLPLLPSRNADETFFGVQWICP
B1: the EC50 was determined as 0.4 nM with mCD27-Fc and 1.4 nM with mCD40-Fc.
